# Reference: a protein production outcome set (Wang et al. 2014)
# Assay: label from the status in PepcDB records
row,Sequence,protein production
1,MRITSTANPRIKELARLLERKHRDSQRRFLIEGAREIERALQAGIELEQALVWEGGLNPEEQQVYAALGRVGRLALLEVSEAVLKKLSVRDNPAGLIALARMPERTLEEYRPSPDALILVAVGLEKPGNLGAVLRSADAAGAEAVLVAGGVDLYSPQVIRNSTGVVFSLRTLAASESEVLDWIKQHNLPLVATTPHAEALYWEANLRPPVAIAVGPEHEGLRAAWLEAAQTQVRIPMQGQADSLNVSVSAALLLYEALRQRLLRDRLTKTHSTL,not failed
2,MRIVAPVMPRHFDEAQAIDISKYEDVNLIEWRADFLPKDEIVAVAPAIFEKFAGKEIIFTLRTVQEGGNITLSSQEYVDIIKEINAIYNPDYIDFEYFTHKSVFQEMLDFPNLILSYHNFEETPENLMEAFSEMTKLAPRVVKIAVMPQSEQDVLDLMNYTRGFKTLNPEQEFATISMGKLGRLSRFAGDVIGSSWTYVSLDHVSGPGQVTLNDMKRIIEVLEMDISN,not failed
3,MRIVPFGAAREVTGSAHLLLAGGRRVLLDCGMFQGKEEARNHAPFGFDPKEVDAVLLTHAHLDHVGRLPKLFREGYRGPVYATRATVLLMEIVLEDALKVMDEPFFGPEDVEEALGHLRPLEYGEWLRLGALSLAFGQAGHLPGSAFVVAQGEGRTLVYSGDLGNREKDVLPDPSLPPLADLVLAEGTYGDRPHRPYRETVREFLEILEKTLSQGGKVLIPTFAVERAQEILYVLYTHGHRLPRAPIYLDSPMAGRVLSLYPRLVRYFSEEVQAHFLQGKNPFRPAGLEVVEHTEASKALNRAPGPMVVLAGSGMLAGGRILHHLKHGLSDPRNALVFVGYQPQGGLGAEIIARPPAVRILGEEVPLRASVHTLGGFSGHAGQDELLDWLQGEPRVVLVHGEEEKLLALGKLLALRGQEVSLARFGEGVPV,not failed
4,MRKIFLACPYSHADAEVVEQRFRACNEVAATIVRAGHVVFSQVSMSHPINLCLAELDRAAIGRLWAPVDAFYMDHLEELIVLDLPGWRDSAGIRREMEFFEAGGQRVSLWSEVEHEFR,not failed
5,MRKIVLFGDSITAGYLDEAVSPVLVDLVKRDIAAMGLEEVAVINAGMPGDTTEDGLKRLNKEVLIEKPDEVVIFFGANDASLDRNITVATFRENLETMIHEIGSEKVILITPPYADSGRRPERPQTRIKELVKVAQEVGAAHNLPVIDLYKAMTVYPGTDEFLQADGLHFSQVGYELLGALIVREIKGRLKPKQA,not failed
6,MRKLDRVDMQLVKILSENSRLTYRELADILNTTRQRIARRIDKLKKLGIIRKFTIIPDIDKLGYMYAIVLIKSKVPSDADKVISEISDIEYVKSVEKGVGRYNIIVRLLLPKDIKDAENLISEFLQRIKNAENVEVILISEVRKFEII,not failed
7,MRKLFIPLLLFSALEANEKNGFFIEAGFETGLLEGTQTQEKRHTTTKNTYATYNYLPTDTILKRAANLFTNAEAISKLKFSSLSPVRVLYMYNGQLTIENFLPYNLSNVKLSFTDAQGNVIDLGVIETIPKHSKIVLPGEAFDSLKIDPYTLFLPKIEATSTSVSDANTQRVFETLNKIKTDLVVNYRNENKFKDHENHWEAFTPQTAEEFTNLMLNMIAVLDSQSWGDAILNAPFEFTNKDGGEECDTSKENECVNPGTNGRVNSKVDQQYVLNKQDIVNKFRNKADLDVVILKDSGVVGLGSDITPSNNDDGKHYGQLGVVASALDPKKLFGDNLKTINLEDLRTILHEFSHTKGYTHNGNMTYQRVPVMKDGQVEKDSNGKPKDSDGLPYNVCSLYGGQGQSAFPSNYPNSIYHNCADVPAGFLGVTAAVWQQLINQNALPINYANLSTQTNYNLNASLNTQDLANSMLSTIQKTFVTSSVTNHYSSSASQSFRSPILGVNAKIGYQNYFNDFIGLAYYGIIKYNYAKAINQKVQQLSYGGGIDLLLDFITTYSNKNSPTGIQTKRNFSSSFGIFGGLRGLYNSYYVLNKVKGSGNLDVATGLNYRYKHSKYSVGISIPLIQRKASVVSNGGDYTNSFVFNEGASHFKVFFNYGWVF,failed
8,MRKLLLGLSALTLATASAAAAQDPGPAAPVQYEVAFPNATHREARITATFRKVPKGALQLRMSRSSPGRYAIHEFAKNVYQVTAVDGAGKPLKVDRAEPYGWSVSGHDGTVKVTYTLYADRGDGTYSQIDTTHAHLNMPATFLWAVGYHDKPIRVRFERADPSWKIATQLPPVAGQPDSFWAPNLQYFMDSPTELSAMTVREWKVTDKGRDYTFRLALHHTGTEADADTFAEKLKAIVPEHIKVFGELPKFDYGEYTFIADYMPQITGDGMEHRNSTFISQPRSLFRGNFSQLGTASHELFHAWNVERIRPAELEPFDFTKANPTPSLWLAEGFTQYYGPLLIRRAGQSSMDEFLTGLSGTLNGVVNGPGRLYGSPQEMSLRAPFVDAAAALDPVNPNIFTSYYPYGAVIGLALDLQLRGRDKPLSLDDFMKQMWRAHGVTEKPYTPADVRAALAKTTGDQAFADAFFKASIEGSALPDFAPLLERAGLKLRQKAPKKAWLGAARVKVSGTELLLDAPPVPNSPLYGAGVEVGDRIISIGRFVFANESDWTDALDRLKPGEAMTVQFIQRGQVREAPMTIAADPTLEVVRFEKVDLKPTEAQLAFRTAWLGAEAEAAK,failed
9,MRKRARIIYNPTSGKELFKRELPDALIKLEKAGYETSAYATEKIGDATLEAERAMHENYDVLIAAGGDGTLNEVVNGIAEKPNRPKLGVIPMGTVNDFGRALHIPNDIMGALDVIIEGHSTKVDIGKMNNRY,failed
10,MRKSFNLIWMVFGFLLLIVGCNEDKKSTAFDPNQPVKFTEFMPDSGGIRTKFIVKGSNFGEDKSQVKVYFKDEVGNEREALVLGVKPDVIYAQVPKQAGGESHVRVEIAGKEAELSNAEKTFKYIVTSSVSTVVGKAKEGGNKDGTLGETTFNTPRYVAVDNDDNVFIFDSDGRTRLSSIEQNKTITLLDGMVIDQPLFIDKEKKQLFGPCDNANFGCFLFDANVSWVADKMGQLLANGGWMHSVVLDPVDSTFVIYRQNTGQLWTQPFDKNRRTLNPNKAKRIGTLYNTGSNGLCAYNPVDKYVYCVLHSKSAVYRFKLTRDADGWPALDGDIDEYIPGAGAGFRDGDVQEAQFKEPRGIAIDKEGNLYIADVGNNRIRKVDTKLNVVTTIAGSGAAGYKDGDPLEAQFNQPWGVYLDKNEFLYIADQNNHCIRKLAIE,failed
11,MRKVLLTIRKIAMTQPTSRKADLVYQLNDRPPLPQTLFAALQHLLAMFVAVITPSLIICQSLGVPADQTNTIISMSLFASGLSSFIQIRTFGPIGSGLLSIQGTSFNFLGPIIGAGLALKAGGADIETMMAAIFGTILVASSAEILLSRVLQFAQRIITPLVSGIVVTLIGLTLVQVGLISMGGGYAAMADGSFGSLDKLALAGTVLAIIVLLNRAHNPYVRVASIVIAMLVGYVMAYLMGMVNTDNLAETQFIALPIPMQYGLGFDWSLFIPLVLIFLITALEAIGDITATSEVSGEPVKGPVYMKRIKGGVLADGLNSALAAVFNSFPNSTFSQNNGVILLTGVASRYVGYFIAGMLVLLGLFPGVASFVQLIPEPVLGGATIVMFGTIAAAGVRIISRVDLDRRAILIMALSFSMGLGIAQKPEILQFMPEFIKNLFSSGVAAGGITAIVLNLLLPEVRRDEDAASVAKTEAAQESN,failed
12,MRKVLMFLSTALLLAILSLSFTGLDLKAKAASDLYPLPAPIIDVFPDDGLAKDMAKNLNKDSVNDVIDQDDLDALTGLGFETSTITNDSMQLLERAMFNNVTDVSIMEFGAKLTEFPDITTIPHLKTLFFADPPGRLTRNLSLPNYQNYPEMDTITMSGNNLIGSIPDFTGMPALKQLYMSEMLITSDELPNFNNIPLLITLDLSSNQLTTIPDFQNIPNLTFLDLNANLLTNTPDFQNLPKLTDLNLRHNNLTGTMVNYTNLPSLESLNLDYNFLTELPSNVLDTIYVQSQNGELPDQTINQGDTCTIDLPIYFQMEETNMLVSPEVTGEYIGISVIQLPTTVNEEGNTITVDTSALSPGEYKLDVSYNHNYATGGVCSYDWNVTIN,failed
13,MRKVQVLVQTRDGKKTVYEVDRLGTVASLKARIGQVMSVPMGFSRLSYKGRVLSNQSVLEDLGPNKSTLDLTWKPVVLTANQSSKLSKFGYGRIDDSEVMFTLIGGYQQREEYPGGLVNPPDDESQLNFNAGDDDDALEAQDMTGHDLSSIQTDDLSLKGQTEPELDCSIGSHGFSGSQEEGHE,failed
14,MRKVRIANEQTEESDIIKIVHLSDIHFSEAYYMPEIADSMLQIINESSPDIVIITGDLTENGFAAEYNGAKNFIDKIECKNKVIVPGNHDSKNAGYLFFEDIFKARSSSGYFGDVTVIGLDSSQPELDDGHIGRENYGWIESTFSTGSFKVFALHHHLIPIPKTGRGNNVLVDAGDVLELLDRSGVNLVLCGHWHIPWVWRLNDMFIISAGTVCSSKIRGKTSQCYNLIELETPESECTRWHLRITRVFSSGIKELVVDNIV,failed
15,MRKYLAEFLGTFMLVFLGTATVVIAKGDVLAIGLAFGLAITVSAYAFGGISGGHFNPAVTTAMLINRRIDAADAIGYIIAQIIGAIVASAAVKSFVSALGLSATLLGQTDFPKIGSGMAFFVEALVTFLFLMVILNVTSNDHGNADFAGLTIGVTLAFLIIVALNLTGGSLNPARSIGPAIFAGGSALSHLWVYILAPEVGAILAAFCARVMGSED,failed
16,MRLEGEGRSARAGQNLSRAGSARRGAPRDLSMNNLTELQPGLFHHLRFLEELRLSGNHLSHIPGQAFSGLYSLKILMLQNNQLGGIPAEALWELPSLQSLDLNYNKLQEFPVAIRTLGRLQELGFHNNNIKAIPEKAFMGNPLLQTIHFYDNPIQFVGRSAFQYLPKLHTLSLNGAMDIQEFPDLKGTTSLEILTLTRAGIRLLPSGMCQQLPRLRVLELSHNQIEELPSLHRCQKLEEIGLQHNRIWEIGADTFSQLSSLQALDLSWNAIRSIHPEAFSTLHSLVKLDLTDNQLTTLPLAGLGGLMHLKLKGNLALSQAFSKDSFPKLRILEVPYAYQCCPYGMCASFFKASGQWEAEDLHLDDEESSKRPLGLLARQAENHYDQDLDELQLEMEDSKPHPSVQCSPTPGPFKPCEYLFESWGIRLAVWAIVLLSVLCNGLVLLTVFAGGPVPLPPVKFVVGAIAGANTLTGISCGLLASVDALTFGQFSEYGARWETGLGCRATGFLAVLGSEASVLLLTLAAVQCSVSVSCVRAYGKSPSLGSVRAGVLGCLALAGLAAALPLASVGEYGASPLCLPYAPPEGQPAALGFTVALVMMNSFCFLVVAGAYIKLYCDLPRGDFEAVWDCAMVRHVAWLIFADGLLYCPVAFLSFASMLGLFPVTPEAVKSVLLVVLPLPACLNPLLYLLFNPHFRDDLRRLRPRAGDSGPLAYAAAGELEKSSCDSTQALVAFSDVDLILEASEAGRPPGLETYGFPSVTLISCQQPGAPRLEGSHCVEPEGNHFGNPQPSMDGELLLRAEGSTPAGGGLSGGGGFQPSGLAFASHV,failed
17,MRLEKFIHLLGERGFDGALISPGTNLYYLTGLRLHEVGERLAILAVSAEGDYRFLAPSLYENVVNNFPATFWHDGENPYAKLREILEELGISKGRILIEDTMRADWLIGIMKLGKFTFQPLSSLIKELRMIKDKEEVKMMEHASRIADKVFEEILTWDLIGMKERELALKIELLIRELSDGIAFEPIVASGENAANPHHEPGERKIRKGDIIILDYGARWKGYCSDITRTIGLGELDERLVKIYEVVKDAQESAFKAVREGIKAKDVDSRAREVISKAGYGEYFIHRTGHGLGLDVHEEPYIGPDGEVILKNGMTFTIEPGIYVPGLGGVRIEDDIVVDEGKGRRLTKAERELIIL,not failed
18,MRLFSIPPPTLLAGFLAVLIGYASSAAIIWQAAIVAGATTAQISGWMTALGLAMGVSTLTLTLWYRVPVLTAWSTPGAALLVTGLQGLTLNEAIGVFIVTNALIVLCGITGLFARLMRIIPHSLAAAMLAGILLRFGLQAFASLDGQFTLCGSMLLVWLATKAVAPRYAVIAAMIIGIVIVIAQGDVVTTDVVFKPVLPTYITPDFSFAHSLSVALPLFLVTMASQNAPGIAAMKAAGYSAPVSPLIVFTGLLALVFSPFGVYSVGIAAITAAICQSPEAHPDKDQRWLAAAVAGIFYLLAGLFGSAITGMMAALPVSWIQMLAGLALLSTIGGSLYQALHNERERDAAVVAFLVTASGLTLVGIGSAFWGLIAGGVCYVVLNLIADRNRY,failed
